In the supplement of paper PMC9112550, “Optimization of the antimicrobial peptide Bac7 by deep mutational scanning” (BMC Biology, 2022):

Test system: Escherichia coli TOP10
Assay: shrunken log2 fold change of peptide-encoding DNA abundance (4.5 h post-induction vs induction); higher = less antimicrobial activity (less host growth inhibition)
Conditions: time post-induction: 4.5 h; library: site-saturation at positions 5, 18, 19, 20
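Note: peptides expressed intracellularly from a pBAD plasmid library in pooled LB shake-flask culture, induced with 0.3% L-arabinose, DNA abundance read by NGS, three biological replicates, DESeq2 with apeglm shrinkage.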

| Sequence | shrunken log2 fold change |
| --- | --- |
| RRIRNRPPRLPRPRPRPDLTPRP | -0.112 |
| RRIRKRPPRLPRPRPRPVCPPRP | 0.0175 |
| RRIRTRPPRLPRPRPRPFFNPRP | -0.582 |
| RRIRIRPPRLPRPRPRPKYAPRP | -0.118 |
| RRIRHRPPRLPRPRPRPFLEPRP | -0.0353 |
| RRIRERPPRLPRPRPRPNTCPRP | -1.13 |
| RRIRLRPPRLPRPRPRPAAHPRP | 0.163 |
| RRIRDRPPRLPRPRPRPNQRPRP | -0.264 |
| RRIRNRPPRLPRPRPRPVCNPRP | -0.222 |
| RRIRNRPPRLPRPRPRPFCKPRP | -0.835 |
| RRIRNRPPRLPRPRPRPATVPRP | -0.17 |
| RRIRARPPRLPRPRPRPYTAPRP | -0.0946 |
| RRIRLRPPRLPRPRPRPIWTPRP | 0.0256 |
| RRIRMRPPRLPRPRPRPRCHPRP | 0.133 |
| RRIRWRPPRLPRPRPRPYREPRP | -0.773 |
| RRIRCRPPRLPRPRPRPKVNPRP | -0.542 |
| RRIRIRPPRLPRPRPRPRRPPRP | 0.233 |
| RRIRFRPPRLPRPRPRPRLFPRP | -0.0286 |
| RRIRDRPPRLPRPRPRPIAFPRP | 0.15 |
| RRIRQRPPRLPRPRPRPAMRPRP | 0.718 |
| RRIRARPPRLPRPRPRPDNFPRP | -0.294 |
| RRIRARPPRLPRPRPRPVHWPRP | 0.579 |
| RRIRERPPRLPRPRPRPLWLPRP | -0.203 |
| RRIRVRPPRLPRPRPRPENWPRP | 0.131 |
| RRIRFRPPRLPRPRPRPKVPPRP | -0.109 |

| Sequence | shrunken log2 fold change |
| --- | --- |
| RRIRQRPPRLPRPRPRPMDKPRP | 0.0321 |
| RRIRDRPPRLPRPRPRPLQGPRP | 0.287 |
| RRIRWRPPRLPRPRPRPNGCPRP | 0.0739 |
| RRIRNRPPRLPRPRPRPFSCPRP | -0.03 |
| RRIRQRPPRLPRPRPRPRFQPRP | 0.202 |
| RRIRLRPPRLPRPRPRPKKRPRP | 0.277 |
| RRIRHRPPRLPRPRPRPFGDPRP | -0.257 |
| RRIRRRPPRLPRPRPRPENNPRP | 0.0497 |
| RRIRVRPPRLPRPRPRPRMDPRP | -0.371 |
| RRIRTRPPRLPRPRPRPYQWPRP | -0.216 |
| RRIRNRPPRLPRPRPRPWVGPRP | -0.065 |
| RRIRWRPPRLPRPRPRPNCTPRP | 0.0251 |
| RRIRCRPPRLPRPRPRPEMRPRP | 0.835 |
| RRIRMRPPRLPRPRPRPFFFPRP | 0.365 |
| RRIRNRPPRLPRPRPRPVTSPRP | -0.469 |
| RRIRIRPPRLPRPRPRPGQWPRP | -0.124 |
| RRIRKRPPRLPRPRPRPWGEPRP | 0.539 |
| RRIRTRPPRLPRPRPRPTGSPRP | 0.0948 |
| RRIRSRPPRLPRPRPRPVKDPRP | -0.315 |
| RRIRARPPRLPRPRPRPGDPPRP | 0.971 |
| RRIRERPPRLPRPRPRPMPKPRP | 0.153 |
| RRIRVRPPRLPRPRPRPVIGPRP | 0.183 |
| RRIRYRPPRLPRPRPRPYTQPRP | -0.273 |
| RRIRSRPPRLPRPRPRPHLKPRP | -0.137 |
| RRIRYRPPRLPRPRPRPYCDPRP | -0.379 |

| Sequence | shrunken log2 fold change |
| --- | --- |
| RRIRFRPPRLPRPRPRPRQQPRP | 0.0599 |
| RRIRRRPPRLPRPRPRPFIDPRP | -0.162 |
| RRIRDRPPRLPRPRPRPLNAPRP | -0.0226 |
| RRIRMRPPRLPRPRPRPVYFPRP | -0.0299 |
| RRIRKRPPRLPRPRPRPKTVPRP | 0.355 |
| RRIRGRPPRLPRPRPRPQIYPRP | 0.185 |
| RRIRMRPPRLPRPRPRPEANPRP | 3.83 |
| RRIRMRPPRLPRPRPRPRQAPRP | 0.013 |
| RRIRFRPPRLPRPRPRPNPDPRP | -0.0966 |
| RRIRTRPPRLPRPRPRPKNSPRP | -0.438 |
| RRIRKRPPRLPRPRPRPDPFPRP | -0.0704 |
| RRIRARPPRLPRPRPRPLFFPRP | 0.577 |
| RRIRIRPPRLPRPRPRPCMNPRP | -0.307 |
| RRIRERPPRLPRPRPRPRRVPRP | 0.447 |
| RRIRVRPPRLPRPRPRPFGTPRP | -0.0129 |
| RRIRYRPPRLPRPRPRPATNPRP | -0.387 |
| RRIRDRPPRLPRPRPRPHVDPRP | 0.07 |
| RRIRYRPPRLPRPRPRPYFKPRP | -1.83 |
| RRIRDRPPRLPRPRPRPDWGPRP | 0.161 |
| RRIRKRPPRLPRPRPRPDPSPRP | -0.0338 |
| RRIRHRPPRLPRPRPRPFQEPRP | -0.00966 |
| RRIRGRPPRLPRPRPRPQMQPRP | 1.04 |
| RRIRVRPPRLPRPRPRPCSDPRP | -0.0601 |
| RRIRIRPPRLPRPRPRPKVNPRP | -0.647 |
| RRIRNRPPRLPRPRPRPQPCPRP | 0.0582 |

| Sequence | shrunken log2 fold change |
| --- | --- |
| RRIRRRPPRLPRPRPRPTLIPRP | 0.157 |
| RRIRNRPPRLPRPRPRPVAAPRP | 0.359 |
| RRIRWRPPRLPRPRPRPPPYPRP | 0.0878 |
| RRIRQRPPRLPRPRPRPHVLPRP | 0.0625 |
| RRIRIRPPRLPRPRPRPGGRPRP | 0.229 |
| RRIRIRPPRLPRPRPRPRGEPRP | 0.0673 |
| RRIRRRPPRLPRPRPRPDSSPRP | -0.118 |
| RRIRMRPPRLPRPRPRPWDHPRP | 0.0477 |
| RRIRKRPPRLPRPRPRPDWHPRP | 0.0739 |
| RRIRTRPPRLPRPRPRPAGRPRP | 0.352 |
| RRIRIRPPRLPRPRPRPNMPPRP | -0.611 |
| RRIRARPPRLPRPRPRPNNIPRP | -0.537 |
| RRIRSRPPRLPRPRPRPHPQPRP | 0.0419 |
| RRIRARPPRLPRPRPRPKPGPRP | 0.644 |
| RRIRKRPPRLPRPRPRPLNMPRP | 0.0134 |
| RRIRSRPPRLPRPRPRPIYNPRP | -0.785 |
| RRIRHRPPRLPRPRPRPERDPRP | 0.155 |
| RRIRERPPRLPRPRPRPYGLPRP | -0.0303 |
| RRIRWRPPRLPRPRPRPQPRPRP | 0.462 |
| RRIRHRPPRLPRPRPRPNPTPRP | -0.193 |
| RRIRGRPPRLPRPRPRPGWVPRP | 0.892 |
| RRIRYRPPRLPRPRPRPFSFPRP | -0.35 |
| RRIRKRPPRLPRPRPRPDPAPRP | 0.688 |
| RRIRVRPPRLPRPRPRPSLCPRP | -0.233 |
| RRIRQRPPRLPRPRPRPTCMPRP | -0.163 |

| Sequence | shrunken log2 fold change |
| --- | --- |
| RRIRLRPPRLPRPRPRPQNAPRP | 0.223 |
| RRIRFRPPRLPRPRPRPFEDPRP | -0.0916 |
| RRIRHRPPRLPRPRPRPEIVPRP | -0.0182 |
| RRIRTRPPRLPRPRPRPDCCPRP | 0.135 |
| RRIRWRPPRLPRPRPRPHHYPRP | -0.952 |
| RRIRKRPPRLPRPRPRPEHLPRP | 0.132 |
| RRIRRRPPRLPRPRPRPTPEPRP | 0.572 |
| RRIRYRPPRLPRPRPRPYPYPRP | -0.0257 |
| RRIRMRPPRLPRPRPRPNYIPRP | -0.492 |
| RRIRQRPPRLPRPRPRPSPEPRP | -0.0086 |
| RRIRIRPPRLPRPRPRPVVGPRP | 0.0233 |
| RRIRVRPPRLPRPRPRPESDPRP | 0.0889 |
| RRIRPRPPRLPRPRPRPLFHPRP | -0.131 |
| RRIRWRPPRLPRPRPRPDRRPRP | -0.0279 |
| RRIRVRPPRLPRPRPRPGIQPRP | 0.0729 |
| RRIRARPPRLPRPRPRPNWWPRP | 0.802 |
| RRIRKRPPRLPRPRPRPGFGPRP | 1.35 |
| RRIRIRPPRLPRPRPRPTMEPRP | -0.523 |
| RRIRCRPPRLPRPRPRPQGCPRP | -0.0977 |
| RRIRMRPPRLPRPRPRPYGQPRP | 0.0303 |
| RRIRFRPPRLPRPRPRPWIMPRP | -0.206 |
| RRIRIRPPRLPRPRPRPGTVPRP | -0.624 |
| RRIRSRPPRLPRPRPRPFCKPRP | -0.449 |
| RRIRGRPPRLPRPRPRPDPDPRP | 0.776 |
| RRIRWRPPRLPRPRPRPWHTPRP | 0.103 |

| Sequence | shrunken log2 fold change |
| --- | --- |
| RRIRQRPPRLPRPRPRPARNPRP | 0.298 |
| RRIRLRPPRLPRPRPRPNDCPRP | 0.0412 |
| RRIRCRPPRLPRPRPRPHYQPRP | -1.29 |
| RRIRFRPPRLPRPRPRPESYPRP | -0.0666 |
| RRIRGRPPRLPRPRPRPHFYPRP | 0.324 |
| RRIRMRPPRLPRPRPRPFIHPRP | -0.57 |
| RRIRERPPRLPRPRPRPRGNPRP | -0.598 |
| RRIRYRPPRLPRPRPRPQSSPRP | -0.687 |
| RRIRWRPPRLPRPRPRPYWCPRP | -0.704 |
| RRIRCRPPRLPRPRPRPFEKPRP | -0.0689 |
| RRIRNRPPRLPRPRPRPELDPRP | 0.0611 |
| RRIRGRPPRLPRPRPRPGSYPRP | -0.242 |
| RRIRQRPPRLPRPRPRPCYLPRP | -0.195 |
| RRIRQRPPRLPRPRPRPYATPRP | -0.326 |
| RRIRQRPPRLPRPRPRPKRDPRP | 0.114 |
| RRIRARPPRLPRPRPRPRLKPRP | 0.547 |
| RRIRFRPPRLPRPRPRPRTCPRP | -0.0542 |
| RRIRVRPPRLPRPRPRPMRSPRP | 0.604 |
| RRIRNRPPRLPRPRPRPAGDPRP | 0.395 |
| RRIRQRPPRLPRPRPRPYKEPRP | -0.0137 |
| RRIRERPPRLPRPRPRPMRGPRP | 1.19 |
| RRIRIRPPRLPRPRPRPTCIPRP | -0.193 |
| RRIRCRPPRLPRPRPRPAECPRP | -0.223 |
| RRIRWRPPRLPRPRPRPFAFPRP | -0.195 |
| RRIRNRPPRLPRPRPRPERCPRP | 0.0334 |
